These results are taken from the nanobody polyreactivity screen of Harvey et al. (2022).

This series can be described thus: yeast display, Sf9 membrane polyspecificity reagent, FACS + sequencing; frameworks hold sequencing errors. Put shortly: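 After 36–48 hours of galactose induction, yeast (Saccharomyces cerevisiae BJ5465) displaying a synthetic nanobody library were stained at 4 °C for 1 hour with 10% biotinylated, detergent-solubilized Sf9 membrane reagent. Streptavidin microbeads enriched the stained cells before FACS sorting into low and high (top ~1%) gates on anti-HA and streptavidin fluorescence. Each clone's polyreactivity label reflects its gate of origin.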
Take “QVQLVESGGGLVQAGGSLRLSCAASGSIFTKYAMGWYRQAPGKERELVAGISRTTGSTYYADSVKGRFTISRDNAKNTVYLQMNSLKPEDTAVYYCAALSYRRGISRDGGYDYWGQGTQVTVSS”: the “polyreactivity (PSR sort gate)” value is recorded as “high polyreactivity”.
Take “QVQLVESGGGLVQAGGSLRLSCAASGSIFTLNAMGWYRQATGKEREFVAAITLRSGSTYYADSVKGRFTISRDNAKNTVYLQMNSLKPEDTAVYYCAARRTRYIYYYWGQGTQVTVSS”: the “polyreactivity (PSR sort gate)” value is on record as “high polyreactivity”.
As for “QVQLVESGGGLVQAGGSLRLSCAASGSIFTLYAMGWYIQAPGKEREFVAGMSFSTGRTYYADSVKGRFTISRDNAKNTVYLQMHSLTPEDTAGYYCAAYVSHYWYGLYRDGYWGQGTQATVSS”, the “polyreactivity (PSR sort gate)” value is recorded as “low polyreactivity”.
Take “QVQLVESGGGLVQAGGSLRLSCAASGSIFTLYDMGWYRQAPGKERELVAAITSGGSTDYADSVKGRFTISRDNAKNTVYFQMNSLKPEDTAVYYCNAEAYPYWYRGASREYDYWGQGTQVTVSS”: the “polyreactivity (PSR sort gate)” value was “low polyreactivity”.
“QVQLVESGGGLVQAGGSLRLSCAASGSIFTLYDMGWYRQAPGKERELVAAITSGGSTDYADTVKGRFTISRDNAKNTVYLQMNSLKPEDTAVYYCNAESFTYWYRGASREYDYWGQGTQVTVSS”: the “polyreactivity (PSR sort gate)” value is “low polyreactivity”.
Consider “QVQLVESGGGLVQAGGSLRLSCAASGSIFTNNAMGWYRQAPRKERELVAAISWSGGSTYYADSVKGRFTISRDNAKITVYLQMISLKPEDTAVSYCAARYLYYGGRPGYDSWGQGTQVTVSS”, for which the “polyreactivity (PSR sort gate)” value is “high polyreactivity”.
Consider “QVQLVESGGGLVQAGGSLRLSCAASGSIFTPNAMGWYRQAPGKERELVAAISRSGGSTYYADSVKGRFTISRDNAKNTVYLQMNSLKPEDTAVYYCAVDYRYYYRYTSGEYWGQGTQGTVSS”, for which the “polyreactivity (PSR sort gate)” value was “low polyreactivity”.
For “QVQLVESGGGLVQAGGSLRLSCAASGSIFTPNAMGWYRQAPGKERELVAAISSSSDRTYYADSVKGRFTISRDNAKNTVYLQMNSLKPEDTAVYYCAAYAQKRYYWGQGTQVTVSS” the value was “high polyreactivity”.
To “QVQLVESGGGLVQAGGSLRLSCAASGSIFTPNVMGWYRQAPGKERELVAAISQSGGSTFYADSVKGRFTISRDNAKNTVYLQMNSLKPEDTAVYYCATEYYGPVYDLDYDYWGQGTQVNVSS” belongs “low polyreactivity”; to “QVQLVESGGGLVQAGGSLRLSCAASGSIFTPYAMGWYRQAPGKERELVAAISSDGSTYYADSVKGRFTISRDNAKNTVYLQMNSLKTEDTAVYYCAAEYSWYYYYLFVGEYDYWGQGTQVTVSS”, “low polyreactivity”; to “QVQLVESGGGLVQAGGSLRLSCAASGSIFTPYAMGWYRQAPGKERELVAAISYSGGSTYYADSVKGRFTISRDNAKNTVYLQMNSLKPEDTAVYYCATDGYVYTPFDDDEDYWGQGTQVTVSS”, “low polyreactivity”.
Turning to “QVQLVESGGGLVQAGGSLRLSCAASGSIFTPYAMGWYRQAPGKERELVATISWSGGRTYYADSVKGRFTISRDNAKNTVYLQMNSLKPEDTAVYYCNADVLKYKFDYWGQGTQVTVSS”, the “polyreactivity (PSR sort gate)” value is “high polyreactivity”.
Take “QVQLVESGGGLVQAGGSLRLSCAASGSIFTPYAMGWYRQAPGKEWELVAAISWRGCNTYYADSVKGRFTISRDNAKNTVYLQMNSLKPEDTAVYYCAAEQNYVYETGSYDYWGQGTQVTVSS”: the “polyreactivity (PSR sort gate)” value is listed as “low polyreactivity”.
“QVQLVESGGGLVQAGGSLRLSCAASGSIFTQNAMGWYRQAPGKERELVAGISDGDSTNYADSVKGRFTISRDNAKNTVYLQMNSLKPEDTAVYYCNAQGTTETSGGGFFRGMDYWGQGTQVTVSS”: the “polyreactivity (PSR sort gate)” value is “low polyreactivity”.
Turning to “QVQLVESGGGLVQAGGSLRLSCAASGSIFTQYAMGWSRQAPGKERELVAVITTGSSTYYADSVKRRFTISRDNAKNTVYLQMNSLKPEDTSVYYCAVRTATRSPRRYGYWGQGTQVTVSS”, the “polyreactivity (PSR sort gate)” value is “high polyreactivity”.
“QVQLVESGGGLVQAGGSLRLSCAASGSIFTQYAMGWYRQAPGKERELVAAISWTGGRTNYADSVKGRFTISRDTAKNTFYLQMNSLKPEDTSVYYCAATYLLRYCQGWKRMDYWGQGTQVTVSS”: the “polyreactivity (PSR sort gate)” value was “high polyreactivity”.
Regarding “QVQLVESGGGLVQAGGSLRLSCAASGSIFTRNAMGWSRQAPGKEREFVAAISSSGVSTYYADSVKGRFTISRDNAKNTVYLQMNSLKPEDTAVYYCAARWGTKSGRYDYWGQGTQVTVSS”, the “polyreactivity (PSR sort gate)” value was “high polyreactivity”.
Consider “QVQLVESGGGLVQAGGSLRLSCAASGSIFTRNAMGWYRPAPGKERELVAAISRRGVSTYYADSVKGRFTTSRDNAKNTVYLQMNSLKPEDTAVYYCNKLSSYVVARRTTEYDYWGQGTQVTVSS”, for which the “polyreactivity (PSR sort gate)” value was “high polyreactivity”.
For “QVQLVESGGGLVQAGGSLRLSCAASGSIFTRNVMGWSRQAPGKERELVAAITGSGGRTYYADSVKGRFTISRDNAKNTVYLQMNSLKPEDTAVYYCAKSRPGTYDYWGQGTQVTVSS” the value was “high polyreactivity”; for “QVQLVESGGGLVQAGGSLRLSCAASGSIFTRYAMGWYRQAPGKDRELDADIRWGGGDTYYADSVKGRFTNSRDNAKNTVYLQMNSLTPEDTAVYYCNADHTFIKYYPDWGDYGRDYDYWGQGTQVTVSS”, “low polyreactivity”; for “QVQLVESGGGLVQAGGSLRLSCAASGSIFTRYAMGWYRQAPGKERELVAAITASGGRTYYADSVKGRFTISRDNAKNTVYLQMNSLKPEDTAVYYCNTYWRYTSQLPYDYWGQGTQVTVSS”, “high polyreactivity”.
To “QVQLVESGGGLVQAGGSLRLSCAASGSIFTRYAMGWYRQAPGKERELVAAITKSGSRTYYADSVKGRFTISRDNAKNTVYLQMNSLKPEDTAVYYCAVKFYLPRTRGGYWGQGTQVTVSS” belongs “high polyreactivity”.
Turning to “QVQLVESGGGLVQAGGSLRLSCAASGSIFTRYAMGWYRQAPGKERELVATISKRSGSTYYADSVKGRFTISRDNAKNTVYLQMISLKPEDTAVYYCAARNSGRVKYGYWGQGSQVTVSS”, the “polyreactivity (PSR sort gate)” value is recorded as “high polyreactivity”.
Take “QVQLVESGGGLVQAGGSLRLSCAASGSIFTRYAMGWYRQAPGKERELVAVISVSGGRTYYADSVKGRFTISRDNAKNTVYLQMNSLKPEDTAVYYCATDYYRPALDYWGQGTQVTVSS”: the “polyreactivity (PSR sort gate)” value is given as “high polyreactivity”.
On to “QVQLVESGGGLVQAGGSLRLSCAASGSIFTSNAMGWYRQAPGKEWELVAAITSDGAITYADSVKRRFTISRDNAKNTVYLQMNTLKPEDTAVYYCAARIRQNPGGDNSWGQGTQVTVSS”, for which the “polyreactivity (PSR sort gate)” value was “low polyreactivity”.
As for “QVQLVESGGGLVQAGGSLRLSCAASGSIFTVNTMGWYRQAPGKERELVATISKRGGRTYYADSVKGRFTISRDNAKNTVYLQMNSLKPEDTAVYYCNRVASGYPVGTSIDYGYWGQGTQVTVSS”, the “polyreactivity (PSR sort gate)” value is “high polyreactivity”.
“QVQLVESGGGLVQAGGSLRLSCAASGSIFTWNGMGWYRQAPGKERELVAAISNGASTNYAESVKGRFTISRDNAKNTVYLQMNSLKPEDTAVYYCAAKSTGRYDYWGQGTQVTVSS”: the “polyreactivity (PSR sort gate)” value is reported as “low polyreactivity”.
As for “QVQLVESGGGLVQAGGSLRLSCAASGSIFTWYAMGWYRQAPGKERELVARINVSAGITYYADSVKGRFTISRDNAKNTVYLQMNSLKPEDTAVYYCAATGWRRPKHNYWGQGTQVTVSS”, the “polyreactivity (PSR sort gate)” value is recorded as “low polyreactivity”.
As to “QVQLVESGGGLVQAGGSLRLSCAASGSIFTWYAMGWYRQAPGTERELVAAITRGGSTYADSVKGRFTISRDNAKNTVYLQMNSLKPEDTAVYYCNAVYGVYDFNYWGQGTQVTVSS”, the “polyreactivity (PSR sort gate)” value is recorded as “low polyreactivity”.
Regarding “QVQLVESGGGLVQAGGSLRLSCAASGSIFTYKAMGWYRQAPGKERELVAAIRQRGGSTYYADSVKGRFTISRDNAKNTVYLQKNSLKPEDTAVYYCAARGSYVRSYYYYWGQGTQVTVSS”, the “polyreactivity (PSR sort gate)” value is reported as “high polyreactivity”.
In the case of “QVQLVESGGGLVQAGGSLRLSCAASGSIFTYNAMGWYRQAPGKDRELVAAIRLSGGSTYYADSVKGRFTISRDNAKNTVYLQMTSLNPEDTAVYYCAAESAAASGVYSVEYDYWGQGTQVTVSS”, the “polyreactivity (PSR sort gate)” value was “low polyreactivity”.
To “QVQLVESGGGLVQAGGSLRLSCAASGSIFTYNAMGWYRQAPGKERELVAAINTSGSTNYADSVKGRFTISRDNAKNTVYLQMNSLKPEDTAVYYCAAGIVVTGYAYWGQGTQVTVSA” belongs “low polyreactivity”.
In the case of “QVQLVESGGGLVQAGGSLRLSCAASGSIFTYNVMGWYRQAPGKERELVDAISWDGDSTYYSDSVKGRFTISRDNEKNTVYLQMKSLKQDDTAVYYCAADVHEKFQYDYWGQGNQVTVSS”, the “polyreactivity (PSR sort gate)” value is listed as “high polyreactivity”.
Consider “QVQLVESGGGLVQAGGSLRLSCAASGSIFTYYAMGWYRQATRKERELLADIRWSVGSTYYADSVKGRFTISRDNAKNTVYLQMNSLKPEDTAVYYCNAVVYIYYLTSYKYGNDSWGQGTQVTVSS”, for which the “polyreactivity (PSR sort gate)” value is given as “low polyreactivity”.
For “QVQLVESGGGLVQAGGSLRLSCAASGSIFTYYTMAWYRQAPGTERELVAAINGRGHSTYYADSVKGRFTISRDNAKNTVYLQMKSLKSEDTAVYYCKALGSLDGRYGYWGQGTQVTVSS” the value was “high polyreactivity”.
For “QVQLVESGGGLVQAGGSLRLSCAASGSIFVAYDMGWYRQAPGKERELVAAINFDGTSTYYADSVKGRFTISRDNAKNTVYLQMNSLKPEETAVYYCNNRVSPTYKGQYEYWGQGTQVTVSS”, the “polyreactivity (PSR sort gate)” value is “low polyreactivity”.
For “QVQLVESGGGLVQAGGSLRLSCAASGSIFVDYTMGWYRQAPGKERELVAAITYRGTRTYYADSVKGRFTISRDNAKNTVYLQMNSLKPEDTAVYYCNKLYRRYPVPREYDYWGQGTQVSVSS” the value was “high polyreactivity”.
Consider “QVQLVESGGGLVQAGGSLRLSCAASGSIFVDYVMVWYRQAPGKERELVAAISGNGGRTYYADSVKGRFTISRDNAKNTVYLQMNSLKPEDTAVYYCAKVRSVTIGRDYWGQGTQVTVSS”, for which the “polyreactivity (PSR sort gate)” value is recorded as “high polyreactivity”.
On to “QVQLVESGGGLVQAGGSLRLSCAASGSIFVFNAMGWYRQAPGKERELVAAITSGGRTYYADSVKGRFTISRDNAKNTVYLQMNSLKPEDTAVYYCAAEFWFFAGWAYEYWGQGTQVTVSS”, for which the “polyreactivity (PSR sort gate)” value is “high polyreactivity”.
For “QVQLVESGGGLVQAGGSLRLSCAASGSIFVFNAMGWYRQAPGKERELVADITRRGGSTYYADSVKGRFTISRDNAKNTVYLQMNSLKPEDTAVYYCAAANPRDHRGANDYWGQGTQVTVSS” the value was “high polyreactivity”.
